Substitutions are numbered along the chain they refer to. Where “and” joins values, the source holds several entries; their conditions need not be identical. Equal entries are not always repeated.
B1: αF1Ig AM8 (affinity matured anti-F1 immunoglobulin G type 1) (antibody, V domains shown)
VH: QVQLQQWGAGLLKPSETLSLTCAVYGGSFSGYYWSWIRQPPGKGLEWIGEINRSGNTNYNPSLKSRVTISVDTSKNQFSLQLNSVTPEDTAVYYCARTRGYFDLWGRGTLVTVSS
VL: QPVLTQSPSVSVSPGQTASITCSGDKLGGRYASWYQQKPGQSPVLVIYQDTKRPSGIPERFSGSNSGNTATLTISGTQAMDEADYYCQSWDSSAAVFGTGTKLTVL
notes: IgG1; also called aF1Ig AM8; αF1 AM8; source: HEK293 cells, produced by ATUM, purified IgG
B2: αF1Ig 8 (parental anti-F1 immunoglobulin G type 1) (antibody, V domains shown)
VH: B1 VH with R53H
VL: B1 VL with G29D
notes: IgG1; also called parental IgG 8; original anti-F1 IgG 8; source: HEK293 cells, produced by ATUM, purified IgG
B3: αF1Ig AM2 (affinity matured anti-F1 immunoglobulin G type 1) (antibody, V domains shown)
VH: QVQLVESGGGLVKPGGSLRLSCAASGFTFSDYYMSWIRQAPGKGLEWVSYISGSGSIIYYADSVKGRFTISRDNAKNSLYLQMNSLRAEDTAVYYCAKEIRKHDAFDIWGQGTMVTVSS
VL: DIRMTQSPSSLSASVGDRVTITCRASRSISGYLNWYQQKPGKAPKLLIYATSSLQSGVPSRFSGSGSGTDFTLTISSLQPEDFATYYCQQSYSTPSSFGQGTKVDIK
notes: IgG1; also called αF1 AM2; source: HEK293 cells, produced by ATUM, purified IgG
B4: αF1Ig 2 (parental anti-F1 immunoglobulin G type 1) (antibody, V domains shown)
VH: B3 VH with G53S, K102R
VL: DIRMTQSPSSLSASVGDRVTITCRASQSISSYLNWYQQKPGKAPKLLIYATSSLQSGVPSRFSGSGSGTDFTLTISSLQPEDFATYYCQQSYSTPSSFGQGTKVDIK
notes: IgG1; also called parental IgG 2; original anti-F1 IgG 2; source: HEK293 cells, produced by ATUM, purified IgG
B5: αF1Ig 8 (antibody, V domains shown)
VH: B1 VH with R53H
VL: B1 VL with G29D
notes: also called aF1Ig 8; aF1_8; source: HEK293 cells, produced by ATUM; purified IgG
B6: αF1Ig AM8 (antibody, V domains shown)
VH: B1 VH
VL: B1 VL
notes: also called aF1Ig AM8; source: HEK293 cells, produced by ATUM; purified IgG
B7: αF1Ig AM2 (antibody, V domains shown)
VH: B3 VH
VL: B3 VL
notes: also called aF1Ig AM2; source: HEK293 cells, produced by ATUM; purified IgG
B8: αF1Ig 2 (antibody, V domains shown)
VH: B3 VH with G53S, K102R
VL: not shown
notes: also called aF1Ig 2; aF1_2; source: HEK293 cells, produced by ATUM; purified IgG

molecular target: T1, soluble recombinant F1 antigen, monomer-enriched (Yersinia pestis, strain , UniProt P26948); experiment: SPR; conditions: both partners purified
T1 construct: source: bought: BEI Resources NR-44223, expressed in E. coli, monomer enriched

For B1, which Kd is on record?
The Kd was 1.9 nM.

With B2 as the binder, how does the Kd read?
Its Kd is 7.4 nM.

With B3 as the binder, how does the Kd read?
The Kd was 2.7 nM.

With B4 as the binder, how does the Kd read?
Its Kd is 1.9 nM.

molecular target: T2, recombinant F1 antigen of Y. pestis, monomer enriched (Yersinia pestis, strain , UniProt P26948); experiment: SPR; conditions: both partners purified
T2 construct: source: expressed in E. coli; BEI NR-44223, monomer enriched

For B5, which Kd is on record?
The Kd was 5.6 nM and 9.7 nM and 7.4 nM and 6 nM.

For B6, which Kd is on record?
Its Kd is 1.5 nM and 2.4 nM and 1.3 nM and 1.6 nM.

Which Kd does the source give for B7 here?
The Kd was 2.4 nM and 2.3 nM and 1.2 nM.

How did the Kd turn out when B8 was run?
Its Kd is 2.2 nM and 1.3 nM and 2.8 nM and 1.2 nM.
